Measured values from the supplement of paper PMC9170038.

Tested on: MS2 coat protein
Experiment: apparent KD of MS2 coat protein; designed switch direction (-1 OFF switch, 1 ON switch): -1; higher = weaker reporter binding
Procedure, shortened: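 Designed RNA switches were transcribed on Illumina chips by stalled E. coli RNA polymerase and titrated with SNAP-549-labelled MS2 coat protein from 0.7 or 1.5 nM, doubling to 3 µM. Step length ran from 0.8–1.5 h at the lowest concentration to 10–20 min at the highest. The apparent KD is the median over clusters for each design, from curve-fitted normalised cluster fluorescence.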

[1] = input ligand: microRNA oligo, concentration not stated
[2] = Eterna round: R95, input ligand: FMN 200 uM
[3] = Eterna round: R95, input ligand: microRNA oligo, concentration not stated
[4] = Eterna round: R95, input ligand: none

Sequence	apparent KD of MS2 coat protein (input ligand: FMN 200 uM) [nM]	apparent KD of MS2 coat protein [1] [nM]	apparent KD of MS2 coat protein (input ligand: none) [nM]	apparent KD of MS2 coat protein [2] [nM]	apparent KD of MS2 coat protein [3] [nM]	apparent KD of MS2 coat protein [4] [nM]
AAGUAUAGAGGAUAUAGUAGGUACAACAUGAGGAUCACCCAUGUUCUUCAUAACGUAUUUCUAGAAGGCUGAUAAA [EX-5 Malc#27] (Eterna round: R96, puzzle: Exclusion 5)	356	135	126			
AAGAAACGAGGAUAUACAGUUGAGUGAGAGAGGGAAGUGUGACAUGAGGAUCACCCAUGUAGAAGGCGUGAGAG [JR_Exclu2_Sub087] (puzzle: Exclusion 2)				49.1	40.4	76.8
CUAUCUUGCAAGGAUAUGCAAUUUAUUAUUUAUGCAGAAGGUGCUACAUGAGGAUCACCCAUGUUUCUGGGUUU [JR_E6_Sub046] (puzzle: Exclusion 6)					117	
UAUCCACAUGAGGAUCACCCAUGUCAGGAUAUGCACUAUGGGCCAAGUGGUCCAAGGAGCAGAAGGGACGAGAG [Eternabot (L2) Solution 25] (Eterna round: R97, puzzle: Exclusion 1)	28.9		15.2			
AAUUAACAAGCAAGAUCCUACAUGAGGAUCACCCAUGUGCUCGUCUUAUAAAGUACUAUCACGAAAGUGAUAGUACA [Mat - Sensor v3 - turn-off var 1 - Eli Mod - D57] (puzzle: Sensor v3, turn-off variant 1)				217	357	197
ACAUGUACAGAGGAUAUGCGCCUUGGCAAUGGUGUAGAAGGCUGAACAUGAGGAUCACCCAUGUGCAAUCCAAC [EX6 A.5] (Eterna round: R97, puzzle: Exclusion 6)	378		55.4			
AGUAACCGUCACGAAAGUGAUGGUUACGCAAGUAAAUGUACAUGAGGAUCACCCAUGUCCUCAUUUGCUCGUCUUAU [Sensor 3 - 44] (puzzle: Sensor v3, turn-off variant 2)				188	330	
AGAGAAUAGACAGGAUAUGAGAAUAGAUAGAGCUCAGAAGGGUCACAUGAGGAUCACCCAUGUGAAGUCUUGAGGCUGCGUGGA [Prohibition 19 - Jieux - Exclusion NG 1] (Eterna round: R96, puzzle: Exclusion NG 1)	14.6	10.9	18.3			
UAUUCGCGAGGAUAUGCAUUCGAGUCCAUUACGUGUCUGGGACUUGAGGAUCACCCAAGUAGAAGGCGUCUCAU [salish99_ex2_r4_643] (Eterna round: R97, puzzle: Exclusion 2)	99.7		145			
UCUGUUAUGCGAGGAUAUCGACCAUUCCUCUUAACAUGAGGAUCACCCAUGUGCUAAUCCUUCAACGAGAAGGCGCUCUUACUC [JR_ExcNG2_Sub069] (Eterna round: R96, puzzle: Exclusion NG 2)	346	114	268			
CCGGCUUAGCAGGAUAUAGGAGUCGAUAGACACCUAGAAGGGCUAACAUGAGGAUCACCCAUGUGUCCUACCGG [Mod of Eli 2 - Jieux - Exclusion 6] (Eterna round: R97, puzzle: Exclusion 6)	102		47.6			
GGUGCGUAUGUGAGGAUAUGCUGGUCCUUGGGUCGGCAGAAGGCACAUGAGGAUCACCCAUGUGGUGUCGUUCC [salish99_Bmod_ex4_101] (puzzle: Brourd's mod of Exclusion 4)					68	
UUGUUAUAUGUAGGAUAUGCAUAUUAUUAUUAUGCAGAAGGACAUGAGGAUCACCCAUGUAUAUUAUUGUUAUAUGUUAUAUAU [Title] (Eterna round: R96, puzzle: Exclusion NG 1)		16.6				
AAGUACCGUCACGAUAGUGAUGGUACAACAAGUAGUGAAACAUGAGGAUCACCCAUGUCCUCUUUUGCUCGUCUUAU [Sensor 3 - 88] (puzzle: Sensor v3, turn-off variant 2)				931	54	969
